Consider two molecules from patent US20060014264, “Cre/lox system with lox sites having an extended spacer region” (Stowers Institute for Medical Research, published 2006).

Series [1] addresses Cre wt (Enterobacteria phage P1, UniProt P06956 SEQ:1-343). Description: cleavage_in_vitro; reference for mutants; cleavage strongly reduced on intact lox+3; 30 nM Cre, 10 mM MgCl2, 37 C. Particulars: chain copies: 2 per lox site (stated); label: 5'-32P. On the procedure:
(§1) DNA cleavage reactions were in a 12 μl reaction volume containing Cre reaction buffer, 83 ng/μl BSA, 8.3 ng/μl calf thymus DNA, […] appropriate ³²P-labeled DNA substrate and 30 nM of Cre. Reactions were incubated at 37° C. for 1 hour, terminated by addition of 12 μl of 2×SDS-gels loading buffer (x: 40 mM Tris-HCl pH 6.8, 50 mM DTT, 1.0% SDS, 7.5% Glycerol, 0.01% Bromphenol Blue), heated at 95° C. for 5 minutes and then analyzed by 15% SDS-PAGE. Gels were quantified using a PhosphorImager (Molecular Dynamics, Sunnyvale, Calif.) scanner.
(§2) The ability of each mutant to catalyze cleavage at the lox⁺³ site on an unnicked 54 bp substrate was examined. Cleavage by Cre is easily detected as a slowly moving band on a polyacrylamide gel resulting from the formation of a protein-DNA complex in which the catalytic tyrosine of Cre is covalently linked to a 3′ phosphate of the labeled DNA substrate at the site of cleavage (FIG. 3).

In series [2] the target is T1, Cre 286::LRPHW (Enterobacteria phage P1, UniProt P06956 SEQ:1-348).
T1 chain: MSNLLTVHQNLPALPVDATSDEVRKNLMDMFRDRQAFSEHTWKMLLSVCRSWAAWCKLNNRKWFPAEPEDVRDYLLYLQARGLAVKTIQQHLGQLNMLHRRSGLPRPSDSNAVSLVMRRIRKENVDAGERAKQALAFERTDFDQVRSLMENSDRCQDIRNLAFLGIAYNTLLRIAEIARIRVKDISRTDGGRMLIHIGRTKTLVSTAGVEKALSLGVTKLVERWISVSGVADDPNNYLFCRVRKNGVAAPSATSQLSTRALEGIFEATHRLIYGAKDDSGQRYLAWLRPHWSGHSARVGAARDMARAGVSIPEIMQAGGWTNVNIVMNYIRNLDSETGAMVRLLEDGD
In words: cleavage_in_vitro; covalent complex, top strand; 30 nM Cre. The note with it: chain copies: 2 per lox site (stated); label: 5'-32P. On the procedure:
as §1, §2

Series [3] concerns the target T2, Cre 18::CGRNA+P15L (Enterobacteria phage P1, UniProt P06956 SEQ:1-348).
T2 chain: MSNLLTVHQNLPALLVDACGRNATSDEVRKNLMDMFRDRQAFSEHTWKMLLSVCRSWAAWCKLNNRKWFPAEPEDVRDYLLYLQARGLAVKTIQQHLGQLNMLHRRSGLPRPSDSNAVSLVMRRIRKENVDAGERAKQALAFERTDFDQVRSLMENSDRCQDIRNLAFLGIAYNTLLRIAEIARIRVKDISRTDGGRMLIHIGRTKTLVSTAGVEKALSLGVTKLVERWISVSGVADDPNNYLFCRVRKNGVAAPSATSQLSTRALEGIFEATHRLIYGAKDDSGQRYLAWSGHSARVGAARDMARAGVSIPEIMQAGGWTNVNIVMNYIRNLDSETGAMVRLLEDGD
Described as above. The note with it: chain copies: 2 per lox site (stated); label: 5'-32P. How it is done: as §1, §2

The target in series [4] is T3, Cre 24::CGRIR (Enterobacteria phage P1, UniProt P06956 SEQ:1-348).
T3 chain: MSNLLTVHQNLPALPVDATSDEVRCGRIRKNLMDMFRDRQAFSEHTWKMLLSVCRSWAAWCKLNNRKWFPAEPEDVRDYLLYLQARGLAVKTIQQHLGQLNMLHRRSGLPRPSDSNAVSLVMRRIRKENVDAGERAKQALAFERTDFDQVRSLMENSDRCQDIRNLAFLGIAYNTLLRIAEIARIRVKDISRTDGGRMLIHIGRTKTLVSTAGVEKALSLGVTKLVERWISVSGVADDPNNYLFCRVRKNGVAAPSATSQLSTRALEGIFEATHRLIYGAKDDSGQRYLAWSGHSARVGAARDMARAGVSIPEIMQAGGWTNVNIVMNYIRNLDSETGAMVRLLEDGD
The series is described as above. The note with it: chain copies: 2 per lox site (stated); label: 5'-32P. How it is done:
as §1, §2

Series [5] concerns the target T4, Cre 24::CGRIR (in E. coli) (Enterobacteria phage P1, UniProt P06956 SEQ:1-348).
T4 chain: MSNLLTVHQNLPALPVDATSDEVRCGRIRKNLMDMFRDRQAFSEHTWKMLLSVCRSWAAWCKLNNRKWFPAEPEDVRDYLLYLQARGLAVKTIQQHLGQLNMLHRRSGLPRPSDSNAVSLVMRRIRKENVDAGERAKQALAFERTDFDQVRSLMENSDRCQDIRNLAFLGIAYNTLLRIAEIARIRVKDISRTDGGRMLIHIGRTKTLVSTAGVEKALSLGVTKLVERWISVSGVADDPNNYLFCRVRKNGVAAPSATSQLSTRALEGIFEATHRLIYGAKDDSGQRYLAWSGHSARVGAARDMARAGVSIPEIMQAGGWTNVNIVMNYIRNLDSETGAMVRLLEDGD
Description: cell_activity; background 0.001%. Particulars: chain copies: 2.

Series [6] addresses T5, Cre 280::CGRTG (in E. coli) (Enterobacteria phage P1, UniProt P06956 SEQ:1-348).
T5 chain: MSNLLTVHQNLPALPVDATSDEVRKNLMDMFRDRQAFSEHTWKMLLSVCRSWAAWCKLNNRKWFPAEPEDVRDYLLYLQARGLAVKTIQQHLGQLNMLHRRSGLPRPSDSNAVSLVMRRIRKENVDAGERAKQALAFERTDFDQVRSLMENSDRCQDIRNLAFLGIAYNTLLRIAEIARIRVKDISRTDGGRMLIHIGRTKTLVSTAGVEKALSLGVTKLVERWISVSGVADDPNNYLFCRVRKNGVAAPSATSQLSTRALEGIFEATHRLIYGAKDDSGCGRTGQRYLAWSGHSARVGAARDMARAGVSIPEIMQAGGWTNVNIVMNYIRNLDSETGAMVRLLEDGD
In words: cell_activity; background 0.001%. The note with it: chain copies: 2.

For series [7], the target named is T6, Cre 18::CGRNA+P15L (in E. coli) (Enterobacteria phage P1, UniProt P06956 SEQ:1-348).
T6 chain: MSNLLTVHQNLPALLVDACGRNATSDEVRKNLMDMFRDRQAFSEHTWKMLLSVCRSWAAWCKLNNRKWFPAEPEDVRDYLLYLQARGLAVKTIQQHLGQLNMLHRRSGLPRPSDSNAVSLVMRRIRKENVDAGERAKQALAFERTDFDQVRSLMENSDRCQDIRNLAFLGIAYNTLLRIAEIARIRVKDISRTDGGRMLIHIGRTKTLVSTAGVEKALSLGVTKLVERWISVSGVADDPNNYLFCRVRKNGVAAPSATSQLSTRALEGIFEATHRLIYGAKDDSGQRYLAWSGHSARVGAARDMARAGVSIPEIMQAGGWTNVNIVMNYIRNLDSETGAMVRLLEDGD
Description: cell_activity; background 0.001%. The note with it: chain copies: 2.

Series [8] concerns the target T7, Cre 286::LRPHW (in E. coli) (Enterobacteria phage P1, UniProt P06956 SEQ:1-348).
T7 chain: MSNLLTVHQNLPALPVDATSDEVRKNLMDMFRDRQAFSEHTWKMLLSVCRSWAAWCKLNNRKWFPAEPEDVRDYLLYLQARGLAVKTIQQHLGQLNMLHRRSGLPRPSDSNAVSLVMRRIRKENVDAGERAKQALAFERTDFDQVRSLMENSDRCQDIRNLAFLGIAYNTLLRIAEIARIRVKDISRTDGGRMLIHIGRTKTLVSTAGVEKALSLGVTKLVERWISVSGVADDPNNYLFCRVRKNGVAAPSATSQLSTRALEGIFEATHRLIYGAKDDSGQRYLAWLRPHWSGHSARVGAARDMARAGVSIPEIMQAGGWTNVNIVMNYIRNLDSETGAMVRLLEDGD
In words: cell_activity; background 0.001%. The note with it: chain copies: 2.

Series [9] concerns the target Cre wt (in E. coli) (Enterobacteria phage P1, UniProt P06956 SEQ:1-343). In words: cell_activity; background 0.001%. The note with it: chain copies: 2.

B1: lox+3 cleavage oligonucleotide KC341 duplex (dsDNA)
DNA 1: TCGAGTGCACAACTTCGTATAATGATTTATGCTATACGAAGTTATCATTCGCTAG
DNA 2: CTAGCGAATGATAACTTCGTATAGCATAAATCATTATACGAAGTTGTGCACTCGA
For the molecule B1, the “covalent cleavage complex formation” value in series [1] came out at 1 fold vs wt Cre. For the same molecule, the “cleavage (covalent Cre-DNA complex)” value in [2] came out at 4 fold vs wt Cre; in series [3] it was 20 fold vs wt Cre; in series [4], 4 fold vs wt Cre.

B2: lox+3 site (in plasmid or PCR fragment) (dsDNA)
DNA 1: ACAACTTCGTATAATGATTTATGCTATACGAAGTTAT
DNA 2: ATAACTTCGTATAGCATAAATCATTATACGAAGTTGT
In the case of B2, the activity is 94 % recombination (KnR) in series [5]; 61 % recombination (KnR) in series [6]; 56 % recombination (KnR) in series [7]; 92 % recombination (KnR) in series [8]; 0.1 % recombination (KnR) in [9].
